# Results taken from patent US20190161548A1 (published 2019).
# T1: His-tagged soluble cynomolgus monkey CTLA-4 (cynomolgus monkey, UniProt G7PL88 36-161)
# T1 construct: extracellular domain; also called Cyno CTLA-4
# T1 sequence: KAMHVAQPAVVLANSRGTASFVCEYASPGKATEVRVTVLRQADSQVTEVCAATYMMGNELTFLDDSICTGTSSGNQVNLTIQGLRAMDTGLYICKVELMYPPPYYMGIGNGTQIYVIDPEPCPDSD
# T2: human CTLA-4 expressed on the cell surface (human, UniProt P16410 36-223)
# T2 construct: also called huCTLA-4; CHO cells expressing human CTLA-4
# T2 sequence: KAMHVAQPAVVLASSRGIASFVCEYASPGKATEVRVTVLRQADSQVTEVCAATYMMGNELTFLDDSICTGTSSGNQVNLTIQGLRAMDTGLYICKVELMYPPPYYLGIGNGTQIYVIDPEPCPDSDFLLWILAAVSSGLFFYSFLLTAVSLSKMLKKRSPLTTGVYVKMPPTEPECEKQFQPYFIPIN
# B1: DART C (bispecific antibody)
# chain 1: not shown
# chain 2: EIVLTQSPATLSLSPGERATLSCRASESVDNYGMSFMNWFQQKPGQPPKLLIHAASNQGSGVPSRFSGSGSGTDFTLTISSLEPEDFAVYFCQQSKEVPYTFGGGTKVEIKGGGSGGGGQVQLVESGGGVVQPGRSLRLSCAASGFTFSSYTMHWVRQAPGKGLEWVTFISYDGSNKHYADSVKGRFTVSRDNSKNTLYLQMNSLRAEDTAIYYCARTGWLGPFDYWGQGTLVTVSSGGCGGGKVAACKEKVAALKEKVAALKEKVAALKE
# notes: Four-chain Fc Region-containing diabody, two PD-1 sites (PD-1 mAb 6-ISQ) and two CTLA-4 sites (CTLA-4 mAb 3), IgG4 Fc, E/K-coils
# B2: DART D (bispecific antibody, human IgG4 S228P)
# chain 1: EIVLTQSPATLSLSPGERATLSCRASESVDNYGMSFMNWFQQKPGQPPKLLIHAASNQGSGVPSRFSGSGSGTDFTLTISSLEPEDFAVYFCQQSKEVPYTFGGGTKVEIKGGGSGGGGQVQLVESGGGVVQPGRSLRLSCAASGFTFSSYTMHWVRQAPGKGLEWVTFISYDGSNKHYADSVKGRFTVSRDNSKNTLYLQMNSLRAEDTAIYYCARTGWLGPFDYWGQGTLVTVSSGGCGGGEVAACEKEVAALEKEVAALEKEVAALEKESKYGPPCPPCPAPEFLGGPSVFLFPPKPKDTLYITREPEVTCVVVDVSQEDPEVQFNWYVDGVEVHNAKTKPREEQFNSTYRVVSVLTVLHQDWLNGKEYKCKVSNKGLPSSIEKTISKAKGQPREPQVYTLPPSQEEMTKNQVSLTCLVKGFYPSDIAVEWESNGQPENNYKTTPPVLDSDGSFFLYSRLTVDKSRWQEGNVFSCSVMHEALHNHYTQKSLSLSLG
# chain 2: not shown
# notes: Four-chain Fc Region-containing diabody, two PD-1 sites (PD-1 mAb 6-ISQ) and two CTLA-4 sites (CTLA-4 mAb 3), IgG4 (YTE) Fc, E/K-coils
# B3: TRIDENT A (bispecific antibody, human IgG4 S228P, kappa)
# chain 1: EIVLTQSPATLSLSPGERATLSCRASESVDNYGMSFMNWFQQKPGQPPKLLIHAASNQGSGVPSRFSGSGSGTDFTLTISSLEPEDFAVYFCQQSKEVPYTFGGGTKVEIKGGGSGGGGQVQLVQSGAEVKKPGASVKVSCKASGYSFTSYWMNWVRQAPGQGLEWIGVIHPSDSETWLDQKFKDRVTITVDKSTSTAYMELSSLRSEDTAVYYCAREHYGTSPFAYWGQGTLVTVSSGGCGGGEVAACEKEVAALEKEVAALEKEVAALEKESKYGPPCPPCPAPEFLGGPSVFLFPPKPKDTLYITREPEVTCVVVDVSQEDPEVQFNWYVDGVEVHNAKTKPREEQFNSTYRVVSVLTVLHQDWLNGKEYKCKVSNKGLPSSIEKTISKAKGQPREPQVYTLPPSQEEMTKNQVSLWCLVKGFYPSDIAVEWESNGQPENNYKTTPPVLDSDGSFFLYSRLTVDKSRWQEGNVFSCSVMHEALHNHYTQKSLSLSLG
# chain 2: EIVLTQSPATLSLSPGERATLSCRASESVDNYGMSFMNWFQQKPGQPPKLLIHAASNQGSGVPSRFSGSGSGTDFTLTISSLEPEDFAVYFCQQSKEVPYTFGGGTKVEIKGGGSGGGGQVQLVQSGAEVKKPGASVKVSCKASGYSFTSYWMNWVRQAPGQGLEWIGVIHPSDSETWLDQKFKDRVTITVDKSTSTAYMELSSLRSEDTAVYYCAREHYGTSPFAYWGQGTLVTVSSGGCGGGKVAACKEKVAALKEKVAALKEKVAALKE
# heavy: QVQLVESGGGVVQPGRSLRLSCAASGFTFSSYTMHWVRQAPGKGLEWVTFISYDGSNKHYADSVKGRFTVSRDNSKNTLYLQMNSLRAEDTAIYYCARTGWLGPFDYWGQGTLVTVSSASTKGPSVFPLAPCSRSTSESTAALGCLVKDYFPEPVTVSWNSGALTSGVHTFPAVLQSSGLYSLSSVVTVPSSSLGTKTYTCNVDHKPSNTKVDKRVESKYGPPCPPCPAPEFLGGPSVFLFPPKPKDTLYITREPEVTCVVVDVSQEDPEVQFNWYVDGVEVHNAKTKPREEQFNSTYRVVSVLTVLHQDWLNGKEYKCKVSNKGLPSSIEKTISKAKGQPREPQVYTLPPSQEEMTKNQVSLSCAVKGFYPSDIAVEWESNGQPENNYKTTPPVLDSDGSFFLVSRLTVDKSRWQEGNVFSCSVMHEALHNRYTQKSLSLSLG
# light: not shown
# B4: PD-1 mAb 6 G4P (antibody, human IgG4 S228P, kappa, V domains shown)
# VH: QVQLVQSGAEVKKPGASVKVSCKASGYSFTSYWMNWVRQAPGQGLEWIGVIHPSDSETWLDQKFKDRVTITVDKSTSTAYMELSSLRSEDTAVYYCAREHYGTSPFAYWGQGTLVTVSS
# VL: EIVLTQSPATLSLSPGERATLSCRASESVDNYGMSFMNWFQQKPGQPPKLLIHAASNQGSGVPSRFSGSGSGTDFTLTISSLEPEDFAVYFCQQSKEVPYTFGGGTKVEIKR
# notes: IgG4 with stabilized hinge, kappa light chain; also called the PD-1 antibody; parental anti-PD-1 antibody
# Columns and labels:
# [1] = biological target: T3, His-tagged soluble human PD-1 (human, UniProt Q15116 25-170); test: ELISA; soluble human PD-1 coated; goat anti-human-Fcgamma-HRP, PICO chemiluminescent substrate
# T3 construct: also called hPD-1-His; shPD-1
# T3 sequence (Q15116 25-170 limits assumed): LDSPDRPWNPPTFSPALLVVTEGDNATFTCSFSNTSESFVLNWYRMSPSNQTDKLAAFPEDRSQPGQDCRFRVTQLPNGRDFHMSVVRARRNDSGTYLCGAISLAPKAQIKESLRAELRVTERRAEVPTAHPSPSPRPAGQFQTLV
# Text: FIGS. 8A-8D show the results of ELISA studies measuring the binding of serially diluted binding molecules to human CTLA-4 and human PD-1. […] Goat anti-human-Fc-HRP (1:10,000) was employed as the secondary detection molecule to detect binding. FIGS. 8C-8D show the results of a study on the effect of altering orientations and binding domains on binding. […] Goat anti-human-Fcγ-HRP was employed as the secondary detection molecule to detect binding using PICO chemiluminescent substrate.
# Goat anti-human-Fcγ-HRP was employed as the secondary detection molecule to detect binding using PICO chemiluminescent substrate.
# [2] = biological target: T1, His-tagged soluble cynomolgus monkey …; test: BIACORE (SPR); His-tagged soluble cynomolgus monkey CTLA-4 captured on anti-PentaHis, binding molecule 12.5-200 nM as analyte; avidity by separate ka/kd 1:1 fit
# Procedure: (§1) Briefly, His-tagged soluble CTLA-4 (an extracellular portion of human or cynomolgus monkey CTLA-4 fused to a histidine-containing peptide) was captured on immobilized anti-PentaHis and then different concentrations (12.5-200 nM) of the CTLA-4 binding molecules were passed over the immobilized CTLA-4 proteins. The kinetics of binding were determined via BIACORE® analysis (affinity by 1:1 Langmuir binding model (simultaneous ka/kd); or avidity by separate ka/kd 1:1 fit).
# [3] = biological target: T1, His-tagged soluble cynomolgus monkey …; test: BIACORE (SPR); His-tagged soluble cynomolgus monkey CTLA-4 captured on anti-PentaHis, binding molecule 12.5-200 nM as analyte; affinity by 1:1 Langmuir binding model
# Procedure: as §1
# [4] = biological target: T2, human CTLA-4 expressed on the cell …; test: FACS on Jurkat cells which express huCTLA-4 but not PD-1, anti-human Fc secondary
# Text: Binding of the DART and TRIDENT molecules to human CTLA-4 was detected using anti-human FC secondary Ab (FACS).
binder,measurement,setting,value
B1,binding result,[1],binds
B2,Kd,[2],4.9 nM
B3,Kd,[3],260 nM
B4,EC50,[4],6.56 nM
